Patent publication US20160367497A1, “METHODS AND COMPOSITIONS FOR TREATING NEUROPATHIES” (Washington University, priority 2007, published 2016)

How the values were obtained:
[1] = NMNAT enzymatic assay (NAD production); assay type: biochemical; conditions: protein from HEK293/HEK293T cells; NAD generated in 1 h
Method: […]
NMNAT protein overexpression, affinity purification and enzymatic assay. […] Relative NMNAT enzymatic activity was measured by using affinity purified proteins as described before and subtracted the value obtained from mock transfected cells and normalized by the amount of recombinant protein determined by densitometry.

[2] = system: DRG neuronal explant cultures; experiment: in vitro Wallerian degeneration assay, DRG explant neurite transection; assay type: cell-based, mouse; conditions: lentivirus-mediated expression in DRG neurons
Method: To identify the mechanism of delayed axonal degeneration mediated by the Wlds protein, we employed an in-vitro Wallerian degeneration model. Primary DRG explant neurons were infected with lentivirus expressing the appropriate proteins, and axons were injured by either removal of the neuronal cell body (transection) or growth in vincristine (toxic).
Mouse DRG explants from E12.5 embryos were cultured in the presence of 1 nM nerve growth factor. Non-neuronal cells were removed from the cultures by adding 5-fluorouracil to the culture medium. Transection of neurites was performed at 10-20 DIV using an 18-gauge needle to remove the neuronal cell bodies. Incubation with β-nicotinamide adenine dinucleotide (Sigma) or Sirtinol (Calbiochem) was performed using conditions indicated in the text or figures.
Quantitative analysis of axonal degeneration was performed as previously described (Zhai, et al., Neuron 39:217-25, 2003). Briefly, the cultures were examined using phase contrast microscopy at the indicated times. Axons with a fragmented, non-refractile appearance were designated as “degenerated.” At each time point, at least 200 singly distinguishable axons were blindly scored from several randomly taken images of each culture. Each condition was tested in triplicate explants in each experiment. Results were obtained from 2-4 independent experiments for each condition. Statistical analysis was performed by Student's T test. For calculations of neurite-covered area, digitally captured images from quadruplicate samples of two independent experiments were analyzed using analysis 3.1 software (Soft Imaging System, Lakewood, Colo.).
Cell culture, in vitro axotomy, and quantification of axonal degeneration. Mouse DRG explants from E12.5 embryos were cultured in the DMEM containing 10% FCS and 1 nM nerve growth factor. Non-neuronal cells were removed from the cultures by adding 5-fluorouracil to the culture media. Transection of neurites was performed at 14-21 DIV using an 18-gauge needle to remove the neuronal cell bodies. Lentiviral expression vectors were generated. Lentiviral infection was performed 3-7 days prior to axonal transection for 24 hr. Quantitative analysis of neurite degeneration was performed.

NMNAT3: murine nicotinamide mononucleotide adenylyltransferase3
NMNAT enzymatic activity (NAD synthesis) [1]: comparable enzymatic activity compared with NMNAT1
axonal/neurite degeneration after transection [2]: same extent of delay in neurite degeneration as well as NMNAT1
